This is an account of results in patent publication EP4707304A1 (Axcynsis Therapeutics Pte. Ltd., dated 2024).

Changes are numbered by the printed parent chain. Names and notes keep the numbering of the source.

First the molecules themselves.
B1: humanized antibody hAb-29 (antibody, V domains shown)
VH: EVKLVESGGGLVKPGGSLRLSCAASGFTFNDYTMSWVRQTPAKRLEWVVTISSGGGRTYYPDSVKGRFTISRDNAKNTLYLQMSSLRAEDTAVYYCIRGDYRYDGFAYWGQGTLVTVSS
VL: DIQMTQSPSSLSASVGDRVTITCRASENIDSYLAWYQQKPGKSPQLLVYASTLLVDGVPSRFSGSRSGTQFSLTISSLQPEDVARYYCQHYYSIPYTFGSGTKLEIK
notes: also called VH2VL4 with HC S31D
B2: humanized antibody hAb-46 (antibody, V domains shown)
VH: B1 VH with K3Q, T40A, A42G, T78S, S84N, G105A
VL: B1 VL with V55Q, Q70D, S72T, R85T
notes: also called VH8VL5
B3: humanized antibody hAb-28 (antibody, V domains shown)
VH: B1 VH with D31Q
VL: B1 VL
notes: also called VH2VL4 with HC S31Q
B4: humanized antibody hAb-30 (antibody, V domains shown)
VH: B1 VH with D31E
VL: B1 VL
notes: also called VH2VL4 with HC S31E
B5: humanized antibody hAb-33 (antibody, V domains shown)
VH: B1 VH with D31S, G105A
VL: B1 VL
notes: also called VH2VL4 with HC G100A
B6: humanized antibody hAb-44 (antibody, V domains shown)
VH: B1 VH with T40A, A42G, T78S, S84N, G105A
VL: B1 VL with V55Q, Q70D, S72T, R85T
notes: also called VH6VL5
B7: humanized antibody hAb-47 (antibody, V domains shown)
VH: B1 VH with T40A, A42G, T78S, S84N, G105A
VL: B1 VL
notes: also called VH6VL4
B8: humanized antibody hAb-45 (antibody, V domains shown)
VH: B1 VH with K3Q, T40A, A42G, G105A
VL: B1 VL with V55Q, Q70D, S72T, R85T
notes: also called VH7VL5
B9: humanized antibody hAb-26 (antibody, V domains shown)
VH: B1 VH with D31Y
VL: B1 VL
notes: also called VH2VL4 with HC S31Y
B10: humanized antibody hAb-27 (antibody, V domains shown)
VH: B1 VH with D31M
VL: B1 VL
notes: also called VH2VL4 with HC S31M
B11: humanized antibody hAb-34 (antibody, V domains shown)
VH: B1 VH with G105A
VL: B1 VL
notes: also called VH2VL4 with HC S31D/G100A
B12: humanized antibody hAb-6 (antibody, V domains shown)
VH: B1 VH with D31S, T40A, A42G
VL: B1 VL with V55Q, Q70D, S72T, R85T
B13: humanized antibody hAb-7 (antibody, V domains shown)
VH: B1 VH with D31S, T40A, A42G
VL: B1 VL with V55Q, S72T
B14: humanized antibody hAb-18 (antibody, V domains shown)
VH: B1 VH with K13Q, D31S
VL: B1 VL with V55Q, Q70D, S72T, R85T
B15: humanized antibody hAb-10 (antibody, V domains shown)
VH: B1 VH with D31S
VL: B1 VL with V55Q, Q70D, S72T, R85T
B16: humanized antibody hAb-16 (antibody, V domains shown)
VH: B1 VH with K13Q, D31S, T40A, A42G
VL: B1 VL with V55Q, S72T, V83F, R85T
B17: humanized antibody hAb-8 (antibody, V domains shown)
VH: B1 VH with D31S, T40A, A42G
VL: B1 VL with V55Q, S72T, V83F, R85T
B18: humanized antibody hAb-13 (antibody, V domains shown)
VH: B1 VH with D31S
VL: B1 VL
B19: humanized antibody hAb-21 (antibody, V domains shown)
VH: B1 VH with K13Q, D31S
VL: B1 VL
B20: humanized antibody hAb-9 (antibody, V domains shown)
VH: B1 VH with D31S, T40A, A42G
VL: B1 VL
B21: humanized antibody hAb-24 (antibody, V domains shown)
VH: B1 VH with D31S, K76R
VL: B1 VL with V55Q, S72T, V83F, R85T
B22: humanized antibody hAb-12 (antibody, V domains shown)
VH: B1 VH with D31S
VL: B1 VL with V55Q, S72T, V83F, R85T
B23: humanized antibody hAb-19 (antibody, V domains shown)
VH: B1 VH with K13Q, D31S
VL: B1 VL with V55Q, S72T
B24: humanized antibody hAb-11 (antibody, V domains shown)
VH: B1 VH with D31S
VL: B1 VL with V55Q, S72T
B25: humanized antibody hAb-20 (antibody, V domains shown)
VH: B1 VH with K13Q, D31S
VL: B1 VL with V55Q, S72T, V83F, R85T
B26: humanized antibody hAb-17 (antibody, V domains shown)
VH: B1 VH with K13Q, D31S, T40A, A42G
VL: B1 VL
B27: humanized antibody hAb-25 (antibody, V domains shown)
VH: B1 VH with D31S, K76R
VL: B1 VL
B28: humanized antibody hAb-14 (antibody, V domains shown)
VH: B1 VH with K13Q, D31S, T40A, A42G
VL: B1 VL with V55Q, Q70D, S72T, R85T
B29: humanized antibody hAb-15 (antibody, V domains shown)
VH: B1 VH with K13Q, D31S, T40A, A42G
VL: B1 VL with V55Q, S72T
B30: humanized antibody hAb-23 (antibody, V domains shown)
VH: B1 VH with D31S, K76R
VL: B1 VL with V55Q, S72T
B31: humanized antibody hAb-22 (antibody, V domains shown)
VH: B1 VH with D31S, K76R
VL: B1 VL with V55Q, Q70D, S72T, R85T

The target in one experiment is T1, VLP-hCLDN6 (human, UniProt P56747 1-220).
T1 construct: also called VLP-CLDN6; AT-003-ag1
T1 sequence: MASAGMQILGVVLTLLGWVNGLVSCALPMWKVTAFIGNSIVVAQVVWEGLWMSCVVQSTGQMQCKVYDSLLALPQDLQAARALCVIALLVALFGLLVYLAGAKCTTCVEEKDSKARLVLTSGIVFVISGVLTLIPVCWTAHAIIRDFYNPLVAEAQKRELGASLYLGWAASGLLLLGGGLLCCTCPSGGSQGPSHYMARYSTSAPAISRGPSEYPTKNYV
In words: ELISA on coated VLP-hCLDN6.
For orientation: EC50 means the concentration giving half of the maximal effect. Read a high EC50 as a less potent agent. B1 returned an EC50 of 0.29 nM.

On to B2, for which a half-maximal response (EC50) required 6.55 nM.

B3 showed a concentration for a half-maximal effect (EC50) of 0.19 nM.

Molecule B4 returned an EC50 of 0.29 nM.

On to B5, for which the EC50 worked out at 0.31 nM.

The molecule B6 yielded an EC50 of 6.67 nM.

On to B7, for which the EC50 stood at 0.11 nM.

For the molecule B8, the EC50 turned out to be 4.84 nM.

For B9, it took 0.1 nM to reach a half-maximal effect (EC50).

Take B10: the EC50 is 0.12 nM.

B11 registered an EC50 of 0.89 nM.

In another experiment the target is T2, VLP-hCLDN6 (human) (UniProt P56747).
T2 sequence: T1 sequence
In words: ELISA, coated VLP-hCLDN6, 10 ul antibody sample, HRP-Protein A.
Molecule B12 came in with an OD450 of 0.89.

For B13, the OD450 is 1.37.

In turn, B14 yielded an OD450 of 1.17.

In turn, B15 had an OD450 of 1.18.

Turning to B16, the OD450 was 1.26.

B17 yielded an OD450 of 1.27.

The molecule B18 yielded an OD450 of 1.68.

B19 came in with an OD450 of 2.05.

In turn, B20 gave an OD450 of 1.71.

The molecule B21 registered an OD450 of 1.45.

With B22, the OD450 was determined as 1.36.

Take B23: the OD450 came to 1.62.

B24 registered an OD450 of 1.41.

Molecule B25 yielded an OD450 of 1.38.

Consider B26, for which the OD450 came to 1.6.

Turning to B27, the OD450 came to 1.69.

In the case of B28, the OD450 worked out at 0.22.

Consider B29, for which the OD450 amounted to 1.39.

In the case of B30, the OD450 came to 1.42.

B31 returned an OD450 of 1.12.

The next experiment addresses T2, VLP-hCLDN6 (human). Nature of the experiment: ELISA, coated VLP-hCLDN6, 100 ul antibody sample, HRP-Protein A. (An ELISA detects its analyte on a solid surface through an enzyme-linked reagent.)
With B12, the OD450 is 1.55.

The molecule B13 returned an OD450 of 1.73.

B14 yielded an OD450 of 1.68.

As for B15, the OD450 stood at 1.5.

Take B16: the OD450 was 1.39.

B17 came in with an OD450 of 1.84.

B18 returned an OD450 of 1.95.

Molecule B19 registered an OD450 of 2.23.

B20 had an OD450 of 1.84.

Take B21: the OD450 came to 1.94.

For B22, the OD450 amounted to 1.76.

The molecule B23 returned an OD450 of 1.7.

The molecule B24 yielded an OD450 of 1.81.

In turn, B25 gave an OD450 of 1.81.

Regarding B26, the OD450 is 1.93.

In turn, B27 returned an OD450 of 2.05.

B28 registered an OD450 of 0.97.

Turning to B29, the OD450 was found to be 1.78.

Molecule B30 registered an OD450 of 1.82.

Take B31: the OD450 is 1.63.

A further experiment concerns the target T2, VLP-hCLDN6 (human). In words: ELISA, coated VLP-hCLDN6, 10 ul antibody sample (second well), HRP-Protein A.
The molecule B12 displayed an OD450 of 1.04.

B13 displayed an OD450 of 1.46.

In turn, B14 registered an OD450 of 1.13.

Turning to B15, the OD450 amounted to 1.13.

On to B16, for which the OD450 came out at 1.24.

Molecule B17 registered an OD450 of 1.22.

Turning to B18, the OD450 is 1.7.

As for B19, the OD450 came out at 1.9.

B20 gave an OD450 of 1.57.

Take B21: the OD450 was 1.34.

The molecule B22 displayed an OD450 of 1.4.

Regarding B23, the OD450 was found to be 1.57.

B24 displayed an OD450 of 1.54.

B25: the OD450 was 1.41.

Take B26: the OD450 stood at 1.72.

With B27, the OD450 stood at 1.7.

In turn, B28 yielded an OD450 of 0.23.

B29: the OD450 is 1.47.

As for B30, the OD450 was found to be 1.46.

The molecule B31 yielded an OD450 of 0.96.

A further experiment concerns the target T2, VLP-hCLDN6 (human). Nature of the experiment: ELISA, coated VLP-hCLDN6, 100 ul antibody sample (second well), HRP-Protein A.
The molecule B12 showed an OD450 of 1.61.

In the case of B13, the OD450 was found to be 1.91.

As to B14, the OD450 was 1.52.

As for B15, the OD450 was 1.51.

As for B16, the OD450 was determined as 1.71.

Regarding B17, the OD450 was determined as 1.88.

In turn, B18 came in with an OD450 of 2.26.

The molecule B19 came in with an OD450 of 2.45.

Molecule B20 had an OD450 of 1.94.

Molecule B21 gave an OD450 of 1.87.

For B22, the OD450 was determined as 1.67.

Molecule B23 came in with an OD450 of 1.79.

Turning to B24, the OD450 amounted to 1.8.

The molecule B25 came in with an OD450 of 1.68.

B26 showed an OD450 of 1.78.

In turn, B27 showed an OD450 of 2.24.

In turn, B28 yielded an OD450 of 0.99.

On to B29, for which the OD450 stood at 1.8.

The molecule B30 came in with an OD450 of 2.05.

As for B31, the OD450 amounted to 1.65.
